Laboratory results from the supplement of paper PMC9233669.
Variants at the floor of the assay were thinned out.

Tests used:
[1] = system: biotinyl-Trp-oxazolone; test: self-aminoacylation, catalytic enhancement (BWO) (fold over background); higher = more active; k-Seq, kA / k0A0; sequences stand for … in GGGAAUGGAUCCACAUCUACGAAUUC…UUCACUGCAGACUUGACGAAGCUG
Procedure, shortened: (§1)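 Mutagenized RNA pools with a 21-nt variable region (0.43 μM) were reacted with each biotinyl-aminoacyl-oxazolone at 2–1250 μM for 90 minutes at room temperature, in 50 μL HEPES/NaCl/KCl/MgCl2/CaCl2 buffer containing 5% acetonitrile at pH 6.9–7.0. RNA captured on streptavidin was quantified by triplicate qPCR and by Illumina sequencing. The fraction reacted for each sequence was fit to a pseudo-first-order model with bootstrapping, and catalytic enhancement is the median kA divided by the uncatalyzed rate, taken as the low-activity peak of a bimodal Gaussian fit.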

[2] = system: biotinyl-Ile-oxazolone; test: self-aminoacylation, catalytic enhancement (BIO) (fold over background); higher = more active; k-Seq, kA / k0A0; sequences stand for … in GGGAAUGGAUCCACAUCUACGAAUUC…UUCACUGCAGACUUGACGAAGCUG
Procedure, shortened: as §1

[3] = system: biotinyl-Phe-oxazolone; test: self-aminoacylation, catalytic enhancement (BFO) (fold over background); higher = more active; k-Seq, kA / k0A0; sequences stand for … in GGGAAUGGAUCCACAUCUACGAAUUC…UUCACUGCAGACUUGACGAAGCUG
Procedure, shortened: as §1

[4] = system: biotinyl-Met-oxazolone; test: self-aminoacylation, catalytic enhancement (BMO) (fold over background); higher = more active; k-Seq, kA / k0A0; sequences stand for … in GGGAAUGGAUCCACAUCUACGAAUUC…UUCACUGCAGACUUGACGAAGCUG
Procedure, shortened: as §1

[5] = system: biotinyl-Val-oxazolone; test: self-aminoacylation, catalytic enhancement (BVO) (fold over background); higher = more active; k-Seq, kA / k0A0; sequences stand for … in GGGAAUGGAUCCACAUCUACGAAUUC…UUCACUGCAGACUUGACGAAGCUG
Procedure, shortened: as §1

[6] = system: biotinyl-Leu-oxazolone; test: self-aminoacylation, catalytic enhancement (BLO) (fold over background); higher = more active; k-Seq, kA / k0A0; sequences stand for … in GGGAAUGGAUCCACAUCUACGAAUUC…UUCACUGCAGACUUGACGAAGCUG
Procedure, shortened: as §1

Row | Sequence | self-aminoacylation [1] | self-aminoacylation [2] | self-aminoacylation [3] | self-aminoacylation [4] | self-aminoacylation [5] | self-aminoacylation [6]
1 | ACUAACCUGGUCAUCGAGUGA [Fam2.1 aminoacylation ribozyme variant] | 5.42 | 3.19 | 2.68 | 4.84 | 2.91 | 3.83
2 | CAACUUCAAACAAGCGGUCUG [Fam1A.1 aminoacylation ribozyme variant] | 1.3 | 1.42 | 1.19 | 1.24 | 1 | 1.12
3 | CCACACUUCAAGAAAUCGGAC [Fam1B.1 aminoacylation ribozyme variant] | 0.393 | 0.898 | 0.823 | 0.663 | 0.685 | 0.572
4 | CCACAUUUCAAGCAAUUGGUC [Fam1B.1 aminoacylation ribozyme variant] | 0.656 | 1.22 | 0.932 | 1.17 | 0.994 | 0.857
5 | AAGUAUGCGAAUAGUCGCAAG [Fam3.1 aminoacylation ribozyme variant] | 0.948 | 1.32 | 1.74 | 1.13 | 1 | 1.19
6 | CCACACUACAAGCAAUCGCUC [Fam1B.1 aminoacylation ribozyme variant] | 1.32 | 1.22 | 1.2 | 1.59 | 1.29 | 1.31
7 | CUAUUUCAAACAAUUGGUCUG [Fam1A.1 aminoacylation ribozyme variant] | 0.736 | 1.01 | 0.87 | 0.994 | 0.873 | 0.929
8 | GUUACCCUGGCCAUCGAGUGA [Fam2.1 aminoacylation ribozyme variant] | 9.03 | 4.06 | 43.7 | 6.73 | 5 | 8.07
9 | UCACACUUCAAGCAAUCGUUC [Fam1B.1 aminoacylation ribozyme variant] | 0.608 | 0.696 | 1.45 | 0.602 | 0.792 | 0.611
10 | CCCCACUUCAGGCAAUCGGUC [Fam1B.1 aminoacylation ribozyme variant] | 5.21 | 2.56 | 9.29 | 2.35 | 2.64 | 2.63
11 | CUACGUCAAACAAUCCGUCUG [Fam1A.1 aminoacylation ribozyme variant] | 1.18 | 1.25 | 2.75 | 1.43 | 1.24 | 0.974
12 | AUUCACCUAGGUCAUCGAUUG [Fam2.2 aminoacylation ribozyme variant] | 0.489 | 0.512 | 0.422 | 0.539 | 0.586 | 0.502
13 | CCACACUUCAAGCAAUCAUUC [Fam1B.1 aminoacylation ribozyme variant] | 0.686 | 0.649 | 1.64 | 0.539 | 0.671 | 0.56
14 | AUUCAACUAGGUCAUCGGUUG [Fam2.2 aminoacylation ribozyme variant] | 0.843 | 0.952 | 0.677 | 0.933 | 0.963 | 0.889
15 | AUUCACCUAGGCCAUAGGGUG [Fam2.2 aminoacylation ribozyme variant] | 2.58 | 2.09 | 4.48 | 2.45 | 2.11 | 2.54
16 | GACUUUGCUAAUAGUCGCAAG [Fam3.1 aminoacylation ribozyme variant] | 1.97 | 1.74 | 2.88 | 2.11 | 1.72 | 1.85
17 | AAGUUACCUAAUAGUCGCAAG [Fam3.1 aminoacylation ribozyme variant] | 1.74 | 1.25 | 2.52 | 1.44 | 1.4 | 1.39
18 | CUACAUCAAACAAUCGGUGUG [Fam1A.1 aminoacylation ribozyme variant] | 0.626 | 0.722 | 0.672 | 1.03 | 0.803 | 1.16
19 | AUUACCCUGGUCACAGAGUGA [Fam2.1 aminoacylation ribozyme variant] | 9.52 | 4.39 | 54.1 | 8.95 | 4.01 | 10.9
20 | CCAAACUUCAAGAAAUCGGUC [Fam1B.1 aminoacylation ribozyme variant] | 5.02 | 0.936 | 6.01 | 0.927 | 0.84 | 0.986
21 | AUUCACCUAGGUAAUGGGGUG [Fam2.2 aminoacylation ribozyme variant] | 4.53 | 2.4 | 27.6 | 5.17 | 2.58 | 6.27
22 | AAGUGUGCUACUAGUCGCAAG [Fam3.1 aminoacylation ribozyme variant] | 1.41 | 1.29 | 1.71 | 1.33 | 1.04 | 0.938
23 | AUCACCCUGGUCAUCGCGUGA [Fam2.1 aminoacylation ribozyme variant] | 33.8 | 12.1 | 215 | 33.9 | 17.1 | 36.4
24 | CCACACUUAAAGCAAUCUGUC [Fam1B.1 aminoacylation ribozyme variant] | 0.349 | 0.463 | 0.686 | 0.391 | 0.676 | 0.414
25 | CUACUUCAAAUAAUCGGGCUG [Fam1A.1 aminoacylation ribozyme variant] | 3.35 | 0.911 | 4.76 | 0.607 | 0.85 | 0.965
26 | AAGUUUGCUAAUAUUGGCAAG [Fam3.1 aminoacylation ribozyme variant] | 1.22 | 0.773 | 0.81 | 0.894 | 0.784 | 0.847

Row | Sequence | self-aminoacylation [1] | self-aminoacylation [2] | self-aminoacylation [3] | self-aminoacylation [4] | self-aminoacylation [5] | self-aminoacylation [6]
27 | CCGCACUUCAAGCGAUCGGUC [Fam1B.1 aminoacylation ribozyme variant] | 4.81 | 1.34 | 2.22 | 1.53 | 1.8 | 1.3
28 | CCACACGUCAGGCAAUCGGUC [Fam1B.1 aminoacylation ribozyme variant] | 1.93 | 1.38 | 3.26 | 1.33 | 2.52 | 1.81
29 | AUUACCUUGGGCAUCGAGUGA [Fam2.1 aminoacylation ribozyme variant] | 6.65 | 2.87 | 17.4 | 5.33 | 2.91 | 5.27
30 | CGACUCUUCAAGCAAUCGGUC [Fam1B.1 aminoacylation ribozyme variant] | 3.07 | 1.22 | 3.23 | 1.02 | 1.32 | 0.86
31 | AAAACCCUGGUCAUCGAGUGA [Fam2.1 aminoacylation ribozyme variant] | 73.3 | 26.8 | 462 | 66.9 | 26.3 | 65.1
32 | AUUCAGUUAGGUCAUCGGGUG [Fam2.2 aminoacylation ribozyme variant] | 4.04 | 3.04 | 25.6 | 3.8 | 3.12 | 4.86
33 | AUUACCUUGGUCAUCGAGUGU [Fam2.1 aminoacylation ribozyme variant] | 3.8 | 2.19 | 3.39 | 3.47 | 2.37 | 3.59
34 | AUUCACCUAGGCCAUCGUGUG [Fam2.2 aminoacylation ribozyme variant] | 0.88 | 0.998 | 2.6 | 0.898 | 0.966 | 0.946
35 | CUACUUCAAACAAUCGCUCUA [Fam1A.1 aminoacylation ribozyme variant] | 0.736 | 0.862 | 0.778 | 1.05 | 0.948 | 0.642
36 | AUUGACCUAGGUCGUCGGGUG [Fam2.2 aminoacylation ribozyme variant] | 2.2 | 1.78 | 10.2 | 1.44 | 1.81 | 1.6
37 | CCACAGUUCAAGCAAUCCGUC [Fam1B.1 aminoacylation ribozyme variant] | 1.04 | 1.19 | 1.11 | 1.13 | 1.2 | 1.16
38 | AAGUUUGAUAAUAGCCGCAAG [Fam3.1 aminoacylation ribozyme variant] | 1.19 | 1.29 | 1.32 | 1.37 | 1.14 | 1.05
39 | UAGUUUGCUACUAGUCGCAAG [Fam3.1 aminoacylation ribozyme variant] | 1.23 | 1.42 | 1.57 | 1.24 | 1.1 | 1.23
40 | AUUCACCUAGGUCAUCGGCGG [Fam2.2 aminoacylation ribozyme variant] | 2.74 | 3.21 | 17.9 | 4.11 | 3.27 | 5.14
41 | AUUGCCCUAGUCAUCGAGUGA [Fam2.1 aminoacylation ribozyme variant] | 6.87 | 2.73 | 23.6 | 5.83 | 3.21 | 4.97
42 | AUACCCCUGGUCAUCGAGUGA [Fam2.1 aminoacylation ribozyme variant] | 7.04 | 3.42 | 7.63 | 6.17 | 2.88 | 5.62
43 | CCACACUUCAAGGAAUCGGCC [Fam1B.1 aminoacylation ribozyme variant] | 4.4 | 1.89 | 1.42 | 2.08 | 2.4 | 2.39
44 | AUGUUUGCUAAUGGUCGCAAG [Fam3.1 aminoacylation ribozyme variant] | 1.13 | 1.16 | 1.63 | 0.875 | 0.934 | 1.02
45 | CUACUUCAAACCAUCGGGCUG [Fam1A.1 aminoacylation ribozyme variant] | 1.77 | 1.97 | 0.939 | 2.16 | 1.92 | 1.73
46 | AUUACCCUGGUCGUCGAGUGC [Fam2.1 aminoacylation ribozyme variant] | 0.43 | 0.739 | 1.76 | 0.9 | 0.907 | 0.808
47 | CAACACUUCAAGCGAUCGGUC [Fam1B.1 aminoacylation ribozyme variant] | 1.81 | 1.27 | 1.94 | 1.29 | 1.25 | 1.55
48 | AUUGACCUAGGUCAUCGGUUG [Fam2.2 aminoacylation ribozyme variant] | 1.65 | 1.34 | 3.99 | 1.08 | 1.29 | 1.41
49 | AAGUUUGCGAAUAGUCGCAAC [Fam3.1 aminoacylation ribozyme variant] | 1.46 | 1.66 | 7.2 | 1.33 | 1.4 | 1.32
50 | AAGUUUGCCAAUAGUCCCAAG [Fam3.1 aminoacylation ribozyme variant] | 1.27 | 1.21 | 0.931 | 1.1 | 1.04 | 0.831
51 | AUUCAACUAGGUCAUCGCGUG [Fam2.2 aminoacylation ribozyme variant] | 9.5 | 5.91 | 65.2 | 9.12 | 5.81 | 13.6
